Measured values: US20250277029A1 (Amgen, published 2025)
Where a chain is given by its changes, count along the chain named. Names may count otherwise.

Experiments:
[1] = molecular target: T1, GFP-fused huCB1-SMALP (human CB1 in styrene maleic acid lipoparticles) (human, UniProt P21554 1-472); assay: flow cytometry, yeast-displayed IgG, GFP MFI
T1 construct: Prepared as in Luna V. et al. 2018; also called huCB1-GFP-SMALP; wtCB1-SMALP; not shown: GFP fusion

[2] = molecular target: T2, His-tagged huCB1-ND (human CB1 in nanodisc) (human); assay: flow cytometry, yeast-displayed IgG, huCB1-ND over empty-ND
T2 construct: CB1 construct of Cell 167(3) (2016) 750-762 expressed in Sf9 cells; POPC:MSP1D1:CB1 480:8:1; also called CB1-nanodisc; huCB1-Nanodisc; not shown: histidine purification tag

[3] = molecular target: T1, GFP-fused huCB1-SMALP (human CB1 in …); assay: flow cytometry on IgG-displaying yeast, 100 nM GFP-fused huCB1-SMALP, GFP in BB515-A (y) vs AlexaFluor647 anti-huFab display in APC-A (x)
[4] = molecular target: T2, His-tagged huCB1-ND (human CB1 in …); assay: flow cytometry on IgG-displaying yeast, 0.2 nM His-tagged huCB1 nanodisc, APC anti-His (y) vs PE anti-huFc display (x)
[5] = molecular target: T2, His-tagged huCB1-ND (human CB1 in …); assay: flow cytometry, yeast-displayed IgG, binding/display ratio
[6] = molecular target: T1, GFP-fused huCB1-SMALP (human CB1 in …); assay: flow cytometry, yeast-displayed IgG, GFP MFI; remark: listed apart in the source
mouse CB1 [7] = molecular target: T3, mouse CB1 (mouse, UniProt P47746 1-473); assay: fold over mock (Table 14)
T3 construct: also called muCB1; murine CB1

[8] = molecular target: T4, human cannabinoid receptor type 2 (CB2) (human, UniProt P34972 1-360); assay: fold over mock (Table 14)
T4 construct: also called huCB2; full length hu CB2

[9] = molecular target: T5, empty-ND (nanodisc without CB1); assay: flow cytometry, yeast-displayed IgG, binding/display ratio
T5 construct: its only protein is the nanodisc scaffold; also called Empty Nanodisc

[10] = molecular target: T2, His-tagged huCB1-ND (human CB1 in …); assay: as above; remark: listed apart in the source
mouse CB1 [11] = molecular target: T3, mouse CB1; assay: binding to muCB1, fold over mock (method not described)
[12] = molecular target: T4, human cannabinoid receptor type 2 (CB2); assay: binding to huCB2, fold over mock (method not described)
[13] = molecular target: empty nanodisc (Empty ND); assay: flow cytometry, yeast-displayed Fab, 50 nM Empty ND, after background subtraction
huCB1 nanodisc (CB1-ND) = molecular target: T6, huCB1 nanodisc (CB1-ND) (human, UniProt P21554 99-414); assay: flow cytometry, yeast-displayed Fab, 0.2 nM CB1-ND, after background subtraction
T6 construct: The His-tagged CB1 is embedded in a POPC lipid nanodisc with MSP1D1 scaffold protein (molar ratio 480:8:1); also called huCB1-ND; #CB1-008

[14] = molecular target: T7, GFP-fused huCB1 in styrene maleic acid lipoparticles (CB1-SMALP-GFP) (human, UniProt P21554 1-472); assay: flow cytometry, yeast-displayed Fab, 2.5 nM CB1-SMALP-GFP, after background subtraction
T7 construct: Prepared as described in Luna V. et al. 2018; also called huCB1-GFP-SMALP; GFP-tagged huCB1-SMALP; not shown: GFP fused to huCB1
T7 sequence (P21554 whole entry, the tested form may be a part): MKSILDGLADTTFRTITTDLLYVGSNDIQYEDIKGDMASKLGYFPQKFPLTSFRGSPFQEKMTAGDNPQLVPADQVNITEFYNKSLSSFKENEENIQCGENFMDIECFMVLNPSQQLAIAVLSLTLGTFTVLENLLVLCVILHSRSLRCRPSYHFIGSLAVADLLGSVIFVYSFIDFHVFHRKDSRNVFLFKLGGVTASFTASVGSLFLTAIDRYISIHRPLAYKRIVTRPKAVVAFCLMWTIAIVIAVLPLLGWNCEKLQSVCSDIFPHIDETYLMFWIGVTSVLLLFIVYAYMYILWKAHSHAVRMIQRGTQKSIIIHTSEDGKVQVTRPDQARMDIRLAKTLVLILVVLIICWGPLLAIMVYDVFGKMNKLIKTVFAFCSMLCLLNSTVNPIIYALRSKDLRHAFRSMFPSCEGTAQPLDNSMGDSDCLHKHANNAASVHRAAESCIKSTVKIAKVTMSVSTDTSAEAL

T4 sequence (P34972 whole entry): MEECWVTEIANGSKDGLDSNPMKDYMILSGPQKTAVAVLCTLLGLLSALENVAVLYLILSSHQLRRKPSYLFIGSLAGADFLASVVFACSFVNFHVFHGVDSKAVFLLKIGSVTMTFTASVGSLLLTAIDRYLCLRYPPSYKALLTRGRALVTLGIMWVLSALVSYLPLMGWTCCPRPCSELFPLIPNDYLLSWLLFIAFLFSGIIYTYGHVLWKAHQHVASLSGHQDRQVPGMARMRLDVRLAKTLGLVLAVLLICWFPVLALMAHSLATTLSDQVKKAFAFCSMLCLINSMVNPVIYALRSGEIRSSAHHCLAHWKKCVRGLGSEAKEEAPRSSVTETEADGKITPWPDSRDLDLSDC
T6 sequence (P21554 99-414 limits assumed): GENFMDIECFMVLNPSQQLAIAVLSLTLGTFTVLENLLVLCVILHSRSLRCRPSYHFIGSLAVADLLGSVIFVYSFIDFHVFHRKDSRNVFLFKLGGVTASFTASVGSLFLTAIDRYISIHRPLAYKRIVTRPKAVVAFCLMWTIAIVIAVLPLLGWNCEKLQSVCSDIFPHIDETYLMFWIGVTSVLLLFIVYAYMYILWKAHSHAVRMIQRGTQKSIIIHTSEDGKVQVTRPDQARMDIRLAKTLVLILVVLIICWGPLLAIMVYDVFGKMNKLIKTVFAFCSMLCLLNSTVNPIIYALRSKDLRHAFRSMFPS
T2 sequence (P21554 99-414): as the sequence (P21554 99-414 limits assumed) above
T1 sequence (P21554 whole entry, the tested form may be a part): as the sequence (P21554 whole entry, the tested form may be a part) above
empty nanodisc (Empty ND), sequence (P02647 79-267): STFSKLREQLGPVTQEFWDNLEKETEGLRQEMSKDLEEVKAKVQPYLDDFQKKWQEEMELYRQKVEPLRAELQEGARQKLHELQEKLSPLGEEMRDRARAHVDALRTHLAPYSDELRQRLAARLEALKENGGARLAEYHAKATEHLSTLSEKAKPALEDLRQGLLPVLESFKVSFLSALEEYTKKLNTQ
T3 sequence (P47746 whole entry): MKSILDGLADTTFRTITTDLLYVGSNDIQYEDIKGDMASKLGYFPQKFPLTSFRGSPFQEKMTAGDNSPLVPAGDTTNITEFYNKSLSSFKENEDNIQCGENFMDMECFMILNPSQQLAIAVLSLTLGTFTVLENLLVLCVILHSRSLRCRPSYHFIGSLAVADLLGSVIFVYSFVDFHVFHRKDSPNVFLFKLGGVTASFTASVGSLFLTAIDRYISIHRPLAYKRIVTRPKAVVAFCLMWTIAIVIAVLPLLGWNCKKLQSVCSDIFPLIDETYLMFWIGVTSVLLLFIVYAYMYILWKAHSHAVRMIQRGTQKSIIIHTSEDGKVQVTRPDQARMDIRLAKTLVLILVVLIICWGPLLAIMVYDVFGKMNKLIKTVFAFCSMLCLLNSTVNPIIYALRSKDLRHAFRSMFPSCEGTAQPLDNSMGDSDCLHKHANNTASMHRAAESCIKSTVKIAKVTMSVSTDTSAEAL

B1: LIBC523969-1 (antibody, V domains shown)
VH: QVQLQESGPGLVKPSQTLSLTCTVSGGSIRRGGDYWSWIRQHPGKGLEWIGHIYQTGQTKYNPNLKGRATISVNTYKNQFSLKLSSVTAADTAVYYCARDYDILTGYSYYYYGMDVWGQGTTVTVSS
VL: DIVMTQSPLSLPVTPGEPASISCRSSQSLLSSTGANYLDWYLQKPGQSPQLLIYQGSNRASGVPDRFSGSGSGTDFTLKISRVEAEDVGVYYCRQAVGLPRTFGQGTKVEIKR
[1]
  100 nM huCB1-SMALP binding (normalized to 10D10): 5.69 fold
[2]
  specific huCB1 binding (CB1 ND/Empty ND ratio): 12.8 ratio
[3]
  % of events in the upper right quadrant (display-positive, binding-positive): 27.2%
[4]
  % of events in the upper right quadrant (display-positive, binding-positive): 46.8%
[5]
  relative binding to 0.2 nM huCB1-ND (relative to 10D10N35Y): 4.53 fold

B2: LIBC527919-1 (antibody, IgG1, V domains shown)
VH: B1 VH with S37A, I53V, Q58S, K60A, L65F, G67D, D100N, I103A, T105S
VL: DIQLTQSPSSLSASVGDRVTITCRASQSIISYLNWYQQKPGKAPKLLIYAASSLRSGVPSRFSGSGSGTDFTLTISSLQPEDFATYYCQQYSNYPLTFGGGTRVEIKR
[6]
  100 nM huCB1-GFP-SMALP binding (normalized to 10D10N35Y): 4.15 fold
Mouse CB1 [7]
  binding result: no binding
[8]
  binding result: no binding
[9]
  50.0 nM Empty Nanodisc binding (relative to 10D10N35Y): 0.64 fold
[10]
  0.200 nM huCB1-Nanodisc binding (relative to 10D10N35Y): 5.22 fold
Mouse CB1 [11]
  Fold over mock: 1 fold
[12]
  Fold over mock: 0.9 fold

B3: LIBC680773-1 (yeast-displayed Fab) (Fab, V domains shown)
VH: QVQLQESGPGLVKPSQTLSLTCTVSGGSIRRGGDYWAWIRQHPGKGLEWIGHVYYTGSTNYNPRFKDRATISVNTYKNQFSLKLSSVTAADTAVYYCARNYDTVTGYSYYYYGMDVWGQGTTVTVSS
VL: B2 VL with L4M, I30S, A50K, S52R, S53L, R55S, N93R, Y94L, R103K
[13]
  Relative binding fold change compared to LIBC528116 (Fab): 0.75 fold
huCB1 nanodisc (CB1-ND)
  Relative binding fold change compared to LIBC528116 (Fab): 2.4 fold
[14]
  Relative binding fold change compared to LIBC528116 (Fab): 1.9 fold

B4: LIBC681594-1 (yeast-displayed Fab) (Fab, V domains shown)
VH: B3 VH with V53I, Y55Q, D67G, V104L
VL: DIQMTQSPSSLSASVGDRVTITCRASQSISSYLNWYQQKPGKAPKLLIYKARKLSSGVPSRFSGSGSGTDFTLTISSLQPEDFATYYCQQFGSMPLTFGGGTKVEIKR
[13]
  Relative binding fold change compared to LIBC528116 (Fab): 0.83 fold
huCB1 nanodisc (CB1-ND)
  Relative binding fold change compared to LIBC528116 (Fab): 3.56 fold
[14]
  Relative binding fold change compared to LIBC528116 (Fab): 2.57 fold

B5: 10D10 (antibody, V domains shown)
VH: B1 VH with H52Y, Q55Y, T56S, Q58S, K60N, N64S, G67S, N74D, Y76S
VL: not shown
notes: also called 10D10 antibody; 10D10 parent
[3]
  % of events in the upper right quadrant (display-positive, binding-positive): 1.48%
[4]
  % of events in the upper right quadrant (display-positive, binding-positive): 0.431%
Mouse CB1 [7]
  binding result: no binding
[8]
  binding result: no binding

B6: LIBC680812-1 (yeast-displayed Fab) (Fab, V domains shown)
VH: B3 VH with A37G, Y55Q, N60K, R64S, V104L
VL: B4 VL with K50S, K53R, F91Y, G92R, M94Y, L96I
[13]
  Relative binding fold change compared to LIBC528116 (Fab): 0.74 fold
huCB1 nanodisc (CB1-ND)
  Relative binding fold change compared to LIBC528116 (Fab): 2.23 fold
[14]
  Relative binding fold change compared to LIBC528116 (Fab): 1.71 fold

B7: LIBC681737-1 (yeast-displayed Fab) (Fab, V domains shown)
VH: B3 VH
VL: B4 VL with S12P, K50S, K53R, S55A, F91Y, G92Y, S93H, M94P, L96I
notes: Original yeast clone without the LC P12S germline reversion; Monovalent Fab on yeast
[13]
  Relative binding fold change compared to LIBC528116 (Fab): 0.73 fold
huCB1 nanodisc (CB1-ND)
  Relative binding fold change compared to LIBC528116 (Fab): 1.89 fold
[14]
  Relative binding fold change compared to LIBC528116 (Fab): 1.94 fold
